Data reported in IntAct's records for PubMed 15604664.

B1: Developmental protein … 3 (Arabidopsis thaliana (Mouse-ear cress)), O22456 (parent)
chain: MGRGRVELKRIENKINRQVTFAKRRNGLLKKAYELSVLCDAEVALIIFSNRGKLYEFCSSSSMLRTLERYQKCNYGAPEPNVPSREALAVELSSQQEYLKLKERYDALQRTQRNLLGEDLGPLSTKELESLERQLDSSLKQIRALRTQFMLDQLNDLQSKERMLTETNKTLRLRLADGYQMPLQLNPNQEEVDHYGRHHHQQQQHSQAFFQPLECEPILQIGYQGQQDGMGAGPSVNNYMLGWLPYDTNSI
partner: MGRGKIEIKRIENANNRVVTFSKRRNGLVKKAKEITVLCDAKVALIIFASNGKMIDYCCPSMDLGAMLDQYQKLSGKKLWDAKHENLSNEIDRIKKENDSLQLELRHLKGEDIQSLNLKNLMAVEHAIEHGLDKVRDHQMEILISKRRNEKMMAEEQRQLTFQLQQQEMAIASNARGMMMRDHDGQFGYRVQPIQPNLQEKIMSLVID
B2: Floral homeotic protein … (Arabidopsis thaliana (Mouse-ear cress)), P48007 (parent)
chain: B1 partner
B3: Floral homeotic protein … (Arabidopsis thaliana (Mouse-ear cress)), P48007 (parent)
chain: B1 partner
partner: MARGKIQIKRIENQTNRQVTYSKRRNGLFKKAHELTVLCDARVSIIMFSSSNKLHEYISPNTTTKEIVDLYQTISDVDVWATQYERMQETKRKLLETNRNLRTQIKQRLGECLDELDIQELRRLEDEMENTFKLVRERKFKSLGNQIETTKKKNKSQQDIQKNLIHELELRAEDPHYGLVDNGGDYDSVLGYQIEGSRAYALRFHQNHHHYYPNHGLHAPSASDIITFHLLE

Variants of: B1
Conditions: with pist_arath PI, P48007

effect of a mutation on the interaction | Variant
decreasing interaction | R146E

Variants of: B2
Conditions: with sep3_arath SEP3, O22456

Variant | effect of a mutation on the interaction
I128F | decreasing interaction
I128V | decreasing interaction
A127P | decreasing interaction
E129D | decreasing interaction
E129K;L132P | decreasing interaction

The next lines start with the values.

effect of a mutation on the interaction | Variant
decreasing interaction | E141R;P193L
decreasing interaction | F162L;M203T
decreasing interaction | L164Q
decreasing interaction | K151E
decreasing interaction | P193L
decreasing interaction | A154P;Q157E;F162L
decreasing interaction | I142F
decreasing interaction | L143P
decreasing interaction | R158Q;E168V

Variants of: B3
Conditions: with ap3_arath AP3, P35632

Variant | effect of a mutation on the interaction
L101A | decreasing interaction
L121P | decreasing interaction
L121A | decreasing interaction
L103P | decreasing interaction
I128T | decreasing interaction
I94T | decreasing interaction
N98D | decreasing interaction
L108S | decreasing interaction
I91T | decreasing interaction
V124D | decreasing interaction
L105H | decreasing interaction
G110P | decreasing interaction
G110A | decreasing interaction
L87P | decreasing interaction
A127P | decreasing interaction
G131V | decreasing interaction
G131P | decreasing interaction
Q102P | decreasing interaction
L132P | decreasing interaction
L116P | decreasing interaction
L116R | decreasing interaction

Results, then the variant that gave them:

effect of a mutation on the interaction | Variant
decreasing interaction | S145P
decreasing interaction | L143P
decreasing interaction | A154P
decreasing interaction | M153P
increasing interaction | L160P
increasing interaction | N149P
decreasing interaction | V135A
increasing interaction | Q167P
decreasing interaction | I142P
increasing interaction | G177P
